The test system of this data set is MS2 coat protein. In words: apparent KD of MS2 coat protein; designed switch direction (-1 OFF switch, 1 ON switch): 1; higher = weaker reporter binding. In outline:
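Designed RNA switches sharing common flanks were transcribed on Illumina chips by stalled E. coli RNA polymerase. They were titrated with SNAP-549-labelled MS2 coat protein, from 0.7 or 1.5 nM doubling to 3 µM, in Tris-HCl pH 7.5 buffer with KCl, MgCl2, BSA, DTT, tRNA and Tween-20. Titrations ran without input, with 200 uM small-molecule ligand, or with an oligonucleotide input. The apparent KD of each design is the median over its clusters, after curve-fitting of normalised cluster fluorescence.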

The mark [1] stands for this setting: Eterna round: R95, input ligand: FMN 200 uM.
Setting [2] is: Eterna round: R95, input ligand: microRNA oligo, concentration not stated.
Where [3] appears, read: Eterna round: R95, input ligand: none.
The mark [4] stands for this setting: input ligand: microRNA oligo, concentration not stated.

In the case of “GAAGAACAUGAGGAUCACCCAUGUAAGCGGAAGCUAGGAUAUGCGGGAAAGAAAAGAGAAGCAGAAGGAGUAGGAA [JR_SS1_Sub028] (puzzle: Same State 1)”, the “apparent KD of MS2 coat protein” value is, setting by setting: under setting [1], 33 nM; under setting [2], 44.7 nM; under setting [3], 68.2 nM.

Consider “GAAGAACAUGAGGAUCACCCAUGUAGGCGGAAGCUAGGAUAUGCGGGAAAGAAGAGAGAAGCAGAAGGAGUAGGUA [JR_SS1_Sub030] (puzzle: Same State 1)”, for which the “apparent KD of MS2 coat protein” value reads like this: under setting [1], 28.1 nM; under setting [2], 28.3 nM; under setting [3], 38.2 nM.

Regarding “GAAUUAAGAGUAGGAUAUGUGGGCGAGCUGCCACCCACAUGAGGAUCACCCAUGUAUGGACACUCACAGAAGGGCUUAUUCAAC [Eternabot solution 37] (Eterna round: R96, puzzle: Same State NG 2)”, the “apparent KD of MS2 coat protein” value worked out at 68.8 nM (input ligand: FMN 200 uM), 60.5 nM under setting [4] and 64.8 nM (input ligand: none).

With “GACAUUCUAUCUCAGGAUAUCAUGUCAAAGACAUGAGGAUCACCCAUGUACCAGGAAACUGGUUAUGAGAAGGGAGAUAGAAUGG [Mat - Same State 2 - Mod - D47] (puzzle: Same State 2)”, the “apparent KD of MS2 coat protein” value was determined as 122 nM under setting [1], 119 nM under setting [2] and 221 nM under setting [3].

With “GACGUGAAGGCAGGAUAUGGGAAAGGAAGUGUACCAGAAGGGCCUGGAAAACAUGAGGAUCACCCAUGUGAACCCACGUCAGUU [PowerStrip SSNG 1.26] (Eterna round: R96, puzzle: Same State NG 1)”, the “apparent KD of MS2 coat protein” value came to 16 nM (input ligand: FMN 200 uM), 35.4 nM under setting [4] and 27.9 nM (input ligand: none).

Regarding “GAGAGACAUGAGGAUCACCCAUGUAGGAGAAGACAAGGAUAUGUAGGAGAAGGAGAAGGAACAGAAGGUGUGGGAG [JR_SS1_Sub051] (puzzle: Same State 1)”, the “apparent KD of MS2 coat protein” value amounted to 57.9 nM under setting [1], 96.6 nM under setting [2] and 109 nM under setting [3].

As for “GAGAGAGGAAGCGAGGAUAUCGUGUUGAGUACAUGAGGAUCACCCAUGUUGUAGGUAGAGGUAGGCGAGAAGGCGCAGGAGAGGU [JR_SS2_Sub098] (puzzle: Same State 2)”, the “apparent KD of MS2 coat protein” value amounted to 106 nM under setting [1], 48.8 nM under setting [2] and 122 nM under setting [3].

As for “GAGAGAUGGCGAGGAUAUUCGGUGAUAAUGAUGGAAGAAGGCGCUGACAUGAGGAUCACCCAUGUGGGAAUAAUCCAGAGAGAG [Parity 16 - Jieux - Same State NG 1] (Eterna round: R96, puzzle: Same State NG 1)”, the “apparent KD of MS2 coat protein” value was found to be 306 nM (input ligand: FMN 200 uM), 154 nM under setting [4] and 257 nM (input ligand: none).

Regarding “GAGCCAGUCCGAGGAUAUUCAUAACAUGAGGAUCACCCAUGUAGGCUCAGAAAAGAAGAGCCUUGGGAGAAGGCGGACUGGCUC [Xeonanisa<<5] (Eterna round: R96, puzzle: Same State NG 2)”, the “apparent KD of MS2 coat protein” value reads like this: (input ligand: FMN 200 uM) 9.88 nM; under setting [4], 30.2 nM; (input ligand: none) 43.8 nM.

With “GAGCCAGUCCGAGGAUAUUCAUAUUAACACAUGAGGAUCACCCAUGUAGGCUCAGAAGAGCCCUGGGAGAAGGCGGACUGGCUC [SS-NG2-LRO15] (Eterna round: R96, puzzle: Same State NG 2)”, the “apparent KD of MS2 coat protein” value by setting is: (input ligand: FMN 200 uM) 85.5 nM; under setting [4], 455 nM; (input ligand: none) 1100 nM.

For “GAGCGCUGUCGAGAGGAUAUGCGGUGAUGGACAUGAGGAUCACCCAUGUUAGCGAUAGCAUUACGGUAGAAGGCUCUACAGCUGC [Mat - Same State 2 - Mod of UCT - D87] (puzzle: Same State 2)”, the “apparent KD of MS2 coat protein” value under setting [2] was determined as 22.3 nM.

In the case of “GAGCUCCAACGCGGAGCUCCACAUGAGGAUCACCCAUGUACACAGGAUAUCACUCCCUUUGGGAGUGAGAAGGGUGGUUCGGAA [Bebeave] (Eterna round: R96, puzzle: Same State NG 3)”, the “apparent KD of MS2 coat protein” value is, setting by setting: (input ligand: FMN 200 uM) 41.4 nM; under setting [4], 41.9 nM; (input ligand: none) 58.6 nM.

For the sequence “GAGCUCGUGUGAGGAUAUGCCGCCGUUUCGGCUGCAGAAGGUGCUACGUUACAUGAGGAUCACCCAUGUCUCUGUUGUUUCGUA [salish99_SSNG1_r04_960] (Eterna round: R96, puzzle: Same State NG 1)”, the “apparent KD of MS2 coat protein” value runs as follows: (input ligand: FMN 200 uM) 65.1 nM; under setting [4], 43.3 nM; (input ligand: none) 51.1 nM.

Turning to “GAGCUCGUGUGAGGAUAUGCCGCCGUUUCGGCUGCAGAAGGUGCUACGUUACAUGAGGAUCACCCAUGUCUCUGUUGUUUCGUC [salish99_SSNG1_r04_961] (Eterna round: R96, puzzle: Same State NG 1)”, the “apparent KD of MS2 coat protein” value runs as follows: (input ligand: FMN 200 uM) 25.1 nM; under setting [4], 24.2 nM; (input ligand: none) 30 nM.

For “GAGGAUGAUUUACAGGAUAUAUAGAAGAUGACAUGAGGAUCACCCAUGUAAGAGAGAGGAGGGAGAUAGAAGGGUAAGGGAUGUG [JR_SS2_Sub41] (puzzle: Same State 2)”, the “apparent KD of MS2 coat protein” value under setting [1] turned out to be 35.4 nM, the “apparent KD of MS2 coat protein” value under setting [2] was found to be 27.8 nM and the “apparent KD of MS2 coat protein” value under setting [3] came to 49.6 nM.

In the case of “GAGGGCGAAAGCAACAUGAGGAUCACCCAUGUCCUCGGAGGUCAGGAUAUCCGGCGGUAGCCGAAGGAGAAGGGACGGUGAACC [AK SSNG3-V2-32.1] (Eterna round: R96, puzzle: Same State NG 3)”, the “apparent KD of MS2 coat protein” value (input ligand: FMN 200 uM) worked out at 180 nM, the “apparent KD of MS2 coat protein” value under setting [4] was found to be 97.5 nM and the “apparent KD of MS2 coat protein” value (input ligand: none) was found to be 175 nM.

Take “GAGUAGUUGAAAGGAUAUGGAUUGUUAUAGAAUCCAGAAGGUUCUAACAUGAGGAUCACCCAUGUAGGACUAUUCCUGUGUAUC [Parity 79 - Jieux - Same State NG 1] (Eterna round: R96, puzzle: Same State NG 1)”: the “apparent KD of MS2 coat protein” value reads like this: (input ligand: FMN 200 uM) 10.2 nM; under setting [4], 9.3 nM; (input ligand: none) 12.2 nM.

In the case of “GAGUAGUUGGGAGGAUAUCCAUUGUUAUAGAAUGGAGAAGGUUUUAACAUGAGGAUCACCCAUGUAGGACUAUUCCUGUGUAUC [Parity 72 - Jieux - Same State NG 1] (Eterna round: R96, puzzle: Same State NG 1)”, the “apparent KD of MS2 coat protein” value was determined as 13.5 nM (input ligand: FMN 200 uM), 12.2 nM under setting [4] and 16.8 nM (input ligand: none).

On to “GAGUGACAUGAGGAUCACCCAUGUAGAAUAGAACAAGGAUAUGUGGAAGGCGGAGGAGAGACAGAAGGUGUUGAAG [JR_SS1_Sub057] (puzzle: Same State 1)”, for which the “apparent KD of MS2 coat protein” value is, setting by setting: under setting [1], 49 nM; under setting [2], 46 nM; under setting [3], 67.7 nM.

Turning to “GAGUGGCAGUUAGGAUAUAUAGUGAUAAUUACAAUAGAAGGAACAGACAUGAGGAUCACCCAUGUAGGACUAAUCCAGAGAGAG [Parity 38 - Jieux - Same State NG 1] (Eterna round: R96, puzzle: Same State NG 1)”, the “apparent KD of MS2 coat protein” value amounted to 30.9 nM (input ligand: FMN 200 uM), 20.6 nM under setting [4] and 30.9 nM (input ligand: none).

In the case of “GAUACACAUGAGGAUCACCCAUGUCGUAUGACAUGAGGAUAUGUACAGACUUCGGUCUGUACAGAAGGCAUGUGUC [SS1 - 1011 Omei Mod 2] (puzzle: Same State 1)”, the “apparent KD of MS2 coat protein” value under setting [2] worked out at 48.3 nM.

On to “GAUCGUUUGAUAGGAUAUCGCUAUACAUGAGGAUCACCCAUGUUUACCACGCUGGUUUUUCAUACCGAGAAGGAUUCUGAUGAA [salish99_SSNG02_r04_010] (Eterna round: R96, puzzle: Same State NG 2)”, for which the “apparent KD of MS2 coat protein” value worked out at 27.5 nM (input ligand: FMN 200 uM), 27.8 nM under setting [4] and 30.7 nM (input ligand: none).

Turning to “GAUUCACAUGAGGAUCACCCAUGUCGUAAUAUGGGAGGAUAUACGUGGACCGUAGUCCGCGUAGAAGGCCUAAUUG [Mat - Same State 1 - Mod of JL - D25] (puzzle: Same State 1)”, the “apparent KD of MS2 coat protein” value under setting [2] was 148 nM.

Turning to “GCACAUGAGGAUCACCCAUGUGCGAGAAAGACGGACCGGAUACAGGAUAUGCGCGAACGGAAGACGCAGAAGGGUGACCAAAAC [Anmaed] (Eterna round: R96, puzzle: Same State NG 3)”, the “apparent KD of MS2 coat protein” value (input ligand: FMN 200 uM) turned out to be 64.1 nM, the “apparent KD of MS2 coat protein” value under setting [4] was determined as 38.2 nM and the “apparent KD of MS2 coat protein” value (input ligand: none) was determined as 40.6 nM.

Turning to “GCACUGGCGGUAGGAUAUCUAGGAUAUGGGAAAGACUAAGUCUGUAGGUCACCUAACCCAGAAGGAGAGAAGGACACCGAAAGG [pwkr ssNG2 2FMN + F9.20] (Eterna round: R96, puzzle: Same State NG 2)”, the “apparent KD of MS2 coat protein” value is, setting by setting: (input ligand: FMN 200 uM) 115 nM; under setting [4], 16.5 nM; (input ligand: none) 12.9 nM.

Turning to “GCACUGGCGGUAGGAUAUCUAGGAUAUGGGAAAGACUAAGUCUGUAGGUCACCUAACCCAGAAGGAGAGAAGGACCCUGUAAGG [pwkr ssNG2 2FMN + F9.22] (Eterna round: R96, puzzle: Same State NG 2)”, the “apparent KD of MS2 coat protein” value came to 6.55 nM (input ligand: FMN 200 uM), 1.33 nM under setting [4] and 18.1 nM (input ligand: none).

Consider “GCAGAACAUGAGGAUCACCCAUGUCUCUAAUAUCGAGGAUAUGGGCACGGUAUAUCCGAACCAGAAGGCGAACUGC [SS1 Teenbexe 15] (puzzle: Same State 1)”, for which the “apparent KD of MS2 coat protein” value under setting [2] was found to be 244 nM.

With “GCAGUACACGCAGAGGAUAUGUCGGUAACGACAUGAGGAUCACCCAUGUGUACGGAAGUACUCAGACAGAAGGCUGUGUACUGCU [Same State 2 - Hyphema v.3] (puzzle: Same State 2)”, the “apparent KD of MS2 coat protein” value reads like this: under setting [1], 19.4 nM; under setting [2], 79.1 nM; under setting [3], 96.2 nM.

(Values after the supplement of paper PMC9170038.)
